Results reported in US6420157B1, “Zymogen activation system” (Ortho-McNeil Pharmaceutical, Inc., priority 1999, dated 2002).

How the values were obtained:
Format in all cases: biochemical
Settings in all cases: EK-activated protease; substrate 500 uM; pH 7.8; 37° C.; 120 minutes
[1] = Chromogenic amidolytic assay, release of pNA from H-D-Pro-HHT-Arg-pNA
Experimental: (§1) Cells were lysed on ice in 20 mM Tris (pH7.4), 150 mM NaCl, 1% Triton X-100, 1 mM EDTA, 1 mM EGTA, 1 mM PMSF, leupeptin (1 μg/ml), and pepstatin (1 μg/ml). Cell lysates were mixed with anti-FLAG M2 affinity gel (Eastman Kodak Co., New Haven, Conn.) and bound at 4° C. for 3 hours with gentle rotation. The zymogen-bound resin was washed 3 times with TBS buffer (50 mM Tris-HCl, 150 mM NaCl at a final pH of 7.5), and eluted by competition with FLAG peptide (100 μg/ml) in TBS buffer. The eluted zymogen was dialyzed overnight against TBS in Spectra/Por membrane (MWCO: 12,000-14,000) (Spectra Medical Industries, Inc., Huston, Tex.). […] Eluted protein concentration was determined by a Micro BCA Kit (Pierce, Rockford, Ill.) using bovine serum albumin as a standard. Amidolytic activities of the activated protease was monitored by release of para-nitroaniline (pNA) from the synthetic substrates indicated in Table 2. […] Release of pNA was measured over 120 minutes at 37° C. on a micro-plate reader (Molecular Devices, Menlo Park, Calif.) with a 405 nm absorbance filter. The initial reaction rates (Vmax, mOD/min) were determined from plots of absorbance versus time using Softmax (Molecular Devices, Menlo Park, Calif.). […] No measurable chromogenic amidolytic activity was detected with the purified unactivated zymogens. […]

[2] = Chromogenic amidolytic assay, release of pNA from H-D-Lys(CBO)-Pro-Arg-pNA
Experimental: as §1

[3] = Chromogenic amidolytic assay, release of pNA from H-DL-Val-Leu-Arg-pNA
Experimental: as §1

[4] = Chromogenic amidolytic assay, release of pNA from H-D-Val-Leu-Lys-pNA
Experimental: as §1

B1: PFEK-MH2-6XHIS: catalytic domain of human protease MH2 in the PFEK1-6XHIS-TAG activation construct (SEQ.ID.NO.:54), EK-activated (protein)
chain: MDSKGSSQKSRLLLLLVVSNLLLCQGVVSDYKDDDDVDAAALAAPFDDDDKIVGGYNCLEPHSQPWQAALVMENELFCSGVLVHPQWVLSAAHCFQNSYTIGLGLHSLEADQEPGSQMVEASLSVRHPEYNRPLLANDLMLIKLDESVSESDTIRSISIASQCPTAGNSCLVSGWGLLANGRMPTVLQCVNVSVVSEEVCSKLYDPLYHPSMFCAGGGHDQKDSCNGDSGGPLICNGYLQGLVSFGKAPCGQVGVPGVYTNLCKFTEWIEKTVQASSRHHHHHH
specific activity, H-D-Pro-HHT-Arg-pNA [1]: 0.052 nmole pNA produced /min/ug protein
specific activity, H-D-Lys(CBO)-Pro-Arg-pNA [2]: 0.893 nmole pNA produced /min/ug protein
specific activity, H-DL-Val-Leu-Arg-pNA [3]: 0.058 nmole pNA produced /min/ug protein
specific activity, H-D-Val-Leu-Lys-pNA [4]: 0.121 nmole pNA produced /min/ug protein
